Measurements taken from PMC2112137.

Assays:
[1] = target: F-actin-36,000-dalton factor complex (rabbit skeletal F-actin plus Physarum 36,000-dalton factor) (rabbit | Physarum polycephalum) (UniProt P68135); assay: co-sedimentation
[2] = target: plasmodial actin of Physarum polycephalum (pure plasmodial F-actin) (Physarum polycephalum); assay: light scattering
[3] = target: plasmodial actin of Physarum polycephalum (pure plasmodial F-actin) (Physarum polycephalum); assay: co-sedimentation
[4] = target: rabbit skeletal muscle F-actin (rabbit) (UniProt P68135); assay: co-sedimentation

“rabbit skeletal muscle troponin (complex)” was tested, and the Bound TN (%) [1] was 25.8%.

“heavy meromyosin (HMM) of rabbit skeletal muscle myosin (complex)” gave an HMM bound by 0.1 mg/ml F-actin (untreated actin) [2] of 0.362 mg/mL, a stoichiometry N (mol actin monomer per mol HMM) [2] of 2 and an Actin/HMM binding ratio [3] of 0.192 g/g. The stoichiometry N (mol actin per mol HMM) [3] was 2.

“36,000-dalton factor (novel 36,000-dalton actin-binding protein from Physarum plasmodia) (natural protein)” showed a factor/actin weight ratio in the pellet (g/g (factor/actin)) [4] of 0.12 and a stoichiometry N (mol actin per mol 36,000-dalton factor) [4] of 6.6.
